{"source": "patent US6207419A", "about": "“Thrombin inhibitory agents and methods of using same” (The University of North Carolina at Chapel Hill, priority 1999, dated 2001)", "key": {"thrombin [1]": {"system": "thrombin", "assay": "Thrombin inhibition in the absence of glycosaminoglycan", "format": "biochemical, human", "experimental": "All assays were performed at room temperature in 96-well microtiter plates previously coated with 2 mg/mL BSA.\n(§1) Residual thrombin activity was measured with 150 μM GlyProArg-NA and 1 mg/mL pB in the absence of glycosaminoglycan, 2 mg/mL pB in the presence of heparin and 4 mg/mL in the presence of dermatan sulfate. Residual factor Xa activity was measured with 500 μM Spectrozyme FXa and 2mg/mL pB in the presence or absence of glycosaminoglycan. Residual chymotrypsin activity was measured with 150 μM AlaAlaProPhe-NA and residual trypsin activity was measured with 150 μM GlyProArg-NA.\n(§2) Assays were performed at least in triplicate on two or more recombinant protein preparations."}, "[2]": {"target": "T1, plasma purified α-thrombin (Homo sapiens, UniProt P00734)", "T1 construct": "Human α-thrombin, HCII, and ATIII were purified in our laboratory from plasma; from tissue; host or cells: human plasma (purified in the authors' laboratory)", "assay": "Thrombin inhibition in the presence of glycosaminoglycans (heparin or dermatan sulfate)", "format": "biochemical", "experimental": "Protease inhibition rates were determined as described previously (Rogers, S. J., Pratt, C. W., Whinna, H. C., and Church, F. C. (1992) J. Biol. Chem. 267(6), 3613-3617; Whinna, H. C., Choi, H. U., Rosenberg, L. C., and Church, F. C. (1993) J. Biol. Chem. 268, 3920-3924; Ciaccia, A. V., Cunningham, E. L., and Church, F. C. (1995) Protein Express. Purific. 6, 806-812; Ciaccia, A. V., Willemze, A. J., and Church, F. C. (1997) J. Biol. Chem. 272(2), 888-893). All assays were performed at room temperature in 96-well microtiter plates previously coated with 2 mg/mL BSA.\nIn the presence of glycosaminoglycans, 5 nM rHCII (wt, CHis6, CHis5 Pro, L444R, or L444R-CHis6) was incubated with 0.5 nM thrombin and 0-1 mg/mL heparin or 0-4 mg/mL dermatan sulfate or 10 nM rATIII (wt or CHis6) was incubated with 1 nM thrombin or factor Xa and 0-1 mg/mL heparin in the presence of 2 mg/mL BSA in HNPN, pH 7.4.\nas §1, with “GlyProArg-NA. Substrate cleavage was measured by color development at […] on a Vmax Kinetic Microplate Reader (Molecular Devices).” for “GlyProArg-NA.”\nAssays were performed at least in triplicate on two or more recombinant protein preparations. All inhibition studies were measured under pseudo-first order conditions where inhibitor [I] is at least ten-fold higher than enzyme (protease) [E], and second-order rate constants were calculated as described previously (Ciaccia, A. V., Cunningham, E. L., and Church, F. C. (1995) Protein Express. Purific. 6, 806-812; Ciaccia, A. V., Willemze, A. J., and Church, F. C. (1997) J. Biol. Chem. 272(2), 888-893)."}, "[3]": {"assay": "Heparin-Sepharose affinity chromatography", "format": "binding", "conditions": "NaCl gradient, 20 mM Hepes pH 7.4", "experimental": "100 μL of each fraction was aliquoted onto a 96-well microtiter plate and ELISA was performed. The peak elution ionic strength was determined by plotting 405 nm color development and NaCl concentration against the fraction number. All samples were run at least in triplicate using two or more protein preparations. Recombinant ATIII samples were run similarly to the HCII samples, except the elution gradient was run from 50 mM to 2 M NaCl."}, "α-thrombin": {"target": "T2, α-thrombin (Homo sapiens, UniProt P00734)", "T2 construct": "Human α-thrombin, HCII, and ATIII were purified in our laboratory from plasma; from tissue; host or cells: human plasma (purified in the authors' laboratory)", "assay": "Effect of hirugen on thrombin inhibition in the absence of glycosaminoglycan", "format": "biochemical", "experimental": "as §1, §2"}, "thrombin [4]": {"system": "thrombin", "assay": "Plasma-based thrombin inhibition assay", "format": "biochemical, human", "conditions": "for Inhibition Rate k2 × 10^8 (M^-1 min^-1), thrombin in plasma: 10 nM serpin", "experimental": "The assay to evaluate rHCII (wt and rHCII-CHis6) in plasma was designed based on previously published methods (Tollefsen, D. M., and Pestka, C. A. (1985) Blood 66(4), 769-774; Griffith, M. J., Carraway, T., White, G. C., and Dombrose, F. A. (1983) Blood 61(1), 111-118). All assays were performed at room temperature in 96-well microtiter plates previously coated with 2 mg/mL BSA. This assay was performed using normal hemostasis reference plasma (REF), human antithrombin III-deficient plasma (DEF), or a 50:50 mixture of these plasmas (REF/DEF). Within the assay, 10 nM rHCII or rHCII-CHis6 was incubated for 15 sec with I nM thrombin and 1 μg/mL heparin or 50 μg/mL dermatan sulfate, in the presence of a 1:100 dilution of plasma. Residual thrombin activity was measured with 300 μM GPA and 2 mg/mL pB. Substrate cleavage was measured by color development at […] on a Vmax Kinetic Microplate Reader. Second order rate constants were measured at least in triplicate on two recombinant protein preparations as described in Example 4."}, "thrombin [5]": {"system": "thrombin", "assay": "pH titration of thrombin inhibition", "format": "biochemical", "conditions": "pH 6.2 to pH 8; FIG. 6", "excerpt": "Therefore, it is possible that the enhanced thrombin inhibitory activity of rHCII-CHis6 (assayed at pH 7.4) is attributable to a charge on the carboxyl terminal tag. An assay was designed to measure thrombin inhibition by rHCII-CHis6 and wt-rHCII from pH 6.2 to pH 8."}}}
{"molecule": "rHCII-CHis6: Recombinant HCII with six histidine residues added at the carboxyl terminus; SEQ ID NO:5 (protein, C-terminal His6 tag) MKHSLNALLIFLIITSAWGGSKGPLDQLEKGGETAQSADPQWEQLNNKNLSMPLLPADFHKENTVTNDWIPEGEEDDDYLDLEKIFSEDDDYIDIVDSLSVSPTDSDVSAGNILQLFHGKSRIQRLNILNAKFAFNLYRVLKDQVNTFDNIFIAPVGISTAMGMISLGLKGETHEQVHSILHFKDFVNASSKYEITTIHNLFRKLTHRLFRRNFGYTLRSVNDLYIQKQFPILLDFRTKVREYYFAEAQIADFSDPAFISKTNNHIMKLTKGLIKDALENIDPATQMMILNCIYFKGSWVNKFPVEMTHNHNFRLNEREVVKVSMMQTKGNFLAANDQELDCDILQLEYVGGISMLIVVPHKMSGMKTLEAQLTPRVVERWQKSMTNRTREVLLPKFKLEKNYNLVESLKLMGIRMLFDKNGNMAGISDQRIAIDLFKHQGTITVNEEGTQATTVTTVGFMPLSTQVRFTVDRPFLFLIYEHRTSCLLFMGRVANPSRSHHHHHH", "values": [{"measurement": "Ratio (mutant/wt serpin), thrombin", "setting": "thrombin [1]", "result": 1.48}, {"measurement": "rate of thrombin inhibition relative to wt-rHCII", "setting": "thrombin [1]", "result": 1.5, "unit": "fold"}, {"measurement": "k2 × 10^4 (M^-1 min^-1), thrombin", "setting": "thrombin [1]; pH 7.4, mean ± S.D.", "result": "1.92 ± .10 × 10^4 (M^-1 min^-1)"}, {"measurement": "average dermatan sulfate concentration at which the maximal rate was measured (in parentheses), thrombin", "setting": "[2]; Thrombin + dermatan sulfate, unit not printed in table (text b157: μg/mL)", "result": 500}, {"measurement": "average heparin concentration at which the maximal rate was measured (in parentheses), thrombin", "setting": "[2]; Thrombin + heparin, unit not printed in table (text b156: μg/mL)", "result": 5}, {"measurement": "dermatan sulfate concentration at maximal rate of thrombin inhibition", "setting": "[2]; dermatan sulfate", "result": "approximately 500 μg/mL"}, {"measurement": "maximal rate of thrombin inhibition in the presence of dermatan sulfate", "setting": "[2]; dermatan sulfate at optimal concentration", "result": "1.80±0.50×10^9 M^-1 min^-1"}, {"measurement": "decrease in the amount of heparin required for maximal activity versus wt-rHCII", "setting": "[2]; heparin", "result": "~20", "unit": "fold"}, {"measurement": "heparin concentration at maximal rate of thrombin inhibition", "setting": "[2]; heparin", "result": 5, "unit": "µg/mL"}, {"measurement": "maximal rate of thrombin inhibition in the presence of heparin", "setting": "[2]; heparin at optimal concentration", "result": "2.23±0.43×10^9 M^-1 min^-1"}, {"measurement": "Inhibition Rate k2 × 10^8 (M^-1 min^-1), Thrombin + dermatan sulfate", "setting": "[2]; maximal rate of dermatan sulfate curve, mean ± S.D.", "result": "18.0 ± 5.0 × 10^8 (M^-1 min^-1)"}, {"measurement": "Inhibition Rate k2 × 10^8 (M^-1 min^-1), Thrombin + heparin", "setting": "[2]; maximal rate of heparin curve, mean ± S.D.", "result": "22.3 ± 4.3 × 10^8 (M^-1 min^-1)"}, {"measurement": "Ratio (variant/wt), Thrombin + dermatan sulfate", "setting": "[2]; maximal rates", "result": 1.2}, {"measurement": "Ratio (variant/wt), Thrombin + heparin", "setting": "[2]; maximal rates", "result": 2.4}, {"measurement": "increase in the rate of thrombin inhibition with heparin versus wt-rHCII", "setting": "[2]; maximal rates with heparin", "result": "> 2", "unit": "fold"}, {"measurement": "increase of rate of thrombin inhibition with heparin", "setting": "[2]; with heparin versus without", "result": "over 100,000 fold"}, {"measurement": "Heparin-Sepharose [NaCl], peak elution concentration", "setting": "[3]", "result": 575, "unit": "mM"}, {"measurement": "reduction of rate of thrombin inhibition by hirugen", "setting": "α-thrombin; hirugen 20 μM, absence of glycosaminoglycan", "result": "> 50", "unit": "%"}, {"measurement": "rate constant of inhibition (k2) in the absence of peptide", "setting": "α-thrombin; no hirugen, no control peptide, FIG. 5", "result": 310, "unit": "M⁻¹ s⁻¹"}, {"measurement": "increase of thrombin inhibition rate compared to wt-rHCII", "setting": "thrombin [4]; 50 μg/mL dermatan sulfate, each of the plasma conditions", "result": "1.2-1.3 fold"}, {"measurement": "increase of thrombin inhibition rate compared to wt-rHCII", "setting": "thrombin [4]; 50:50 mixture of REF/DEF, 1 μg/mL heparin", "result": 1.5, "unit": "fold"}, {"measurement": "increase of thrombin inhibition rate compared to wt-rHCII", "setting": "thrombin [4]; DEF plasma, 1 μg/mL heparin", "result": 4.6, "unit": "fold"}, {"measurement": "Inhibition Rate k2 × 10^8 (M^-1 min^-1), thrombin in plasma", "setting": "thrombin [4]; Dermatan Sulfate (50 μg/mL), 50:50 Mixture (REF/DEF) plasma 1:100", "result": "7.0 × 10^8 (M^-1 min^-1)"}, {"measurement": "Inhibition Rate k2 × 10^8 (M^-1 min^-1), thrombin in plasma", "setting": "thrombin [4]; Dermatan Sulfate (50 μg/mL), ATIII Deficient (DEF) plasma 1:100", "result": "7.5 × 10^8 (M^-1 min^-1)"}, {"measurement": "Inhibition Rate k2 × 10^8 (M^-1 min^-1), thrombin in plasma", "setting": "thrombin [4]; Dermatan Sulfate (50 μg/mL), Normal Reference (REF) plasma 1:100", "result": "7.2 × 10^8 (M^-1 min^-1)"}, {"measurement": "Inhibition Rate k2 × 10^8 (M^-1 min^-1), thrombin in plasma", "setting": "thrombin [4]; Heparin (1 μg/mL), 50:50 Mixture (REF/DEF) plasma 1:100", "result": "2.8 ± .18 × 10^8 (M^-1 min^-1)"}, {"measurement": "Inhibition Rate k2 × 10^8 (M^-1 min^-1), thrombin in plasma", "setting": "thrombin [4]; Heparin (1 μg/mL), ATIII Deficient (DEF) plasma 1:100", "result": "1.2 ± .10 × 10^8 (M^-1 min^-1)"}, {"measurement": "Inhibition Rate k2 × 10^8 (M^-1 min^-1), thrombin in plasma", "setting": "thrombin [4]; Heparin (1 μg/mL), Normal Reference (REF) plasma 1:100", "result": "3.3 ± .37 × 10^8 (M^-1 min^-1)"}, {"measurement": "increase of thrombin inhibition rate compared to wt-rHCII", "setting": "thrombin [4]; REF plasma, 1 μg/mL heparin", "result": 1.5, "unit": "fold"}, {"measurement": "inhibition of thrombin over pH titration, in words", "setting": "thrombin [5]", "result": "greater than that by wt-rHCII"}]}
